Test results taken from US20240327471A1, “IL-10 INDUCING POLYPEPTIDES AND USES THEREOF” (ENTEROME S.A., priority 2021, published 2024).

How the values were obtained:
monocytes = experiment: IL-10 secretion from monocytes, NAT_29 sequence variants, co-stimulated with LPS (AlphaLISA); type: cell-based, human; conditions: 1 μM; LPS 100 ng/ml; 24 h; monocytes from six donors
Procedure: In order to investigate the impact of different sequence variations of NAT_29, monocytes from six donors were obtained as described in Example 3 and stimulated with 1 μM NAT_29 polypeptide (SEQ ID NO: 1) or a sequence variant thereof containing eight mutations (NAT_38; SEQ ID NO: 9), co-stimulated with 100 ng/ml LPS (NAT_38 comparison) from E. coli O111: B4 (InvivoGen, tlrl-eblps) and placed in humidified CO2 incubator at 5% CO2/37° C. for 24 h. IL-10 secretion was measured at 24 hours by AlphaLISA® on cell supernatants according to the supplier's protocol and read on an Envision plate reader (Perkin Elmer).
For comparison with NAT_29 (SEQ ID NO: 1), a polypeptide differing from the NAT_29 sequence by eight (8) amino acid positions was chosen (NAT_38; SEQ ID NO: 9). Namely, in SEQ ID NO: 9 • (i) 110 of SEQ ID NO: 1 is deleted, • (ii) D13 in SEQ ID NO: 1 is substituted with P (D13P), • (iii) a Q is added between R14 and G15 of SEQ ID NO: 1, • (iv) T16 in SEQ ID NO: 1 is substituted with Y (T16Y), • (v) K17 in SEQ ID NO: 1 is substituted with Q (K17Q), • (vi) S22 in SEQ ID NO: 1 is substituted with G (S22G), • (vii) an I is added between F25 and Y26 of SEQ ID NO: 1, and • (viii) P28 of SEQ ID NO: 1 is deleted.

[1] = system: CD14 depleted human peripheral blood mononuclear cells (PBMCs); experiment: IL-10 screening of microbiota protein library on CD14-depleted PBMCs (AlphaLISA); type: cell-based; conditions: second round of cell-free synthesis, 72 hours
Procedure: IL-10 screening of the microbiota protein library was performed on CD14 depleted human peripheral blood mononuclear cells (PBMCs). This cellular model was chosen to reduce the background due to cell wall components and other bacterial contaminants possibly present in the lysate of the Cell Free synthesis kit on the synthesised (but not purified) proteins.
PBMCs were isolated from buffy coats as follows: 80 ml PBS were added to 50 ml blood; 4 SepMate™-50 IVD tubes (Stemcell Technologies, Vancouver, Canada) were filled with 15 mL of Ficoll® (Ficoll® Paque Plus; Sigma-Aldrich, St. Louis, USA) per donor, then 30 ml of PBS-diluted blood were gently added. Samples were centrifuged for 20 min at 1200 g at room temperature and washed three times with PBS. To lyse the red blood cells, pellets were resuspended in Red Blood Cells Lysis buffer 1X (Miltenyi Biotec, Bergisch Gladbach, Germany) and incubated for 10 min at room temperature. Cells were then washed with MACS buffer and counted.
PBMC depletion was performed using the CD14 Microbeads kit (Miltenyi Biotec, Bergisch Gladbach, Germany) according to the supplier's protocol. […]
IL-10 secretion was measured by AlphaLISA® (IL10 (human) AlphaLISA Detection Kit; PerkinElmer, Waltham MA, USA) on the undiluted supernatants according to the supplier's protocol. Results were expressed as AlphaLISA® signal (Counts). […]

human PBMCs = experiment: Dose-response of purified microbiota proteins, IL-10 secretion from total PBMCs (AlphaLISA); type: cell-based; conditions: 24 hours
Procedure: Before testing, the proteins were purified. In view thereof, CD14 depletion of PBMCs was not required, since the background induced by the residual contaminants present in the purified proteins is very low. Therefore, the cellular assays of Example 2 to characterize the purified proteins were performed on total PBMCs.
The selected proteins, were tested at concentrations of 0.5, 0.25, 0.1 and 0.025 μM (final concentration) on PBMCs. Cells were seeded in 384 well plates at 72,000 cells/well in a final volume of […] and stimulated with either the purified proteins (10% vol/vol) or the relative controls (positive and negative) for 24 hours in a humidified 5% CO2 atmosphere at 37° C. Samples were tested in duplicate on at least two different PBMCs donors. All the dilutions were made in PBS.
Secretion of IL-10 was measured by AlphaLISA and compared to those of PBS (negative control) and PHA at 10 μg/ml (positive control), essentially as described above.

Row | Molecule | IL-10 secretagogue activity compared with NAT_29 (monocytes) | IL-10 secretion from human PBMCs [1] | IL-10 secretion from PBMCs compared with PHA (positive control) (human PBMCs; 0.5, 0.25, 0.1 and 0.025 μM, PHA at 10 μg/ml) | IL-10 secretion from PBMCs at the lowest dose tested (human PBMCs; lowest dose 0.025 μM)
1 | KKGSRSCFFYLPRQGYQKGSRGCFFIYL (NAT_38) | IL-10 secretagogue activity was maintained |  |  | 
2 | ID3166: microbiota protein, 121 amino acids, 14 kDa, SEQ ID NO: 2 (protein, ID3166) AFLFTSTGVPKKAAEAAFFLYLNKGTKKGSRSCFFIYLDRGTKKGSRSCFFYLPRQGYQKGSRGCFFIYLDRGTKKGSRGCFFIYLDCEKRAGNVCIRKCRGRYLHKKTPRRYRNAEATCS |  | able to stimulate IL-10 secretion from human PBMCs | even more effective | very high effectivity even at the lowest dose tested
